Columns and labels:
[1] = molecular target: T1, CD137 (human, UniProt Q07011 24-186); assay: CD137 binding, FCM or ELISA
T1 construct: In the reporter assay it is whole, on GS-H2-huCD137 cells; also called 4-1BB; huCD137

[2] = molecular target: T2, B7H3 (human, UniProt Q5ZPR3 29-466, limits assumed); assay: ELISA or FCM (Example 2)
T2 sequence (looked up): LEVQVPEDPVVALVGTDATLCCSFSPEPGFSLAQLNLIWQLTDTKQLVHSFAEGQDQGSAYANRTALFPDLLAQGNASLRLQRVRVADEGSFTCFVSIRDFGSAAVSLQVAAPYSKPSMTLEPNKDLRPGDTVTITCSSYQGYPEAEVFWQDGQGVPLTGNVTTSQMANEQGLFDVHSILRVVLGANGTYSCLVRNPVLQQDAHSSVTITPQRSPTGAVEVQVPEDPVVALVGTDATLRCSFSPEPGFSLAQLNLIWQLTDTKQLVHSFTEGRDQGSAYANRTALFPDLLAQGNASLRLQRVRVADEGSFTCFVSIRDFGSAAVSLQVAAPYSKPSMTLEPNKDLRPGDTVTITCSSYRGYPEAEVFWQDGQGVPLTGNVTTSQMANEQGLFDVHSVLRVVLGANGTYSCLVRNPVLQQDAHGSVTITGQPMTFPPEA

[3] = molecular target: CD3 (human); assay: CD3 binding, as described in Example 2 (ELISA or FCM)
[4] = molecular target: CD40 (UniProt P25942 21-193, limits assumed); assay: FCM or ELISA, graded
[5] = molecular target: T3, B7H3 (UniProt Q5ZPR3 29-466, limits assumed); assay: FCM or ELISA, graded
T3 sequence (looked up): T2 sequence (looked up)

CD40, sequence (P25942 21-193 limits assumed): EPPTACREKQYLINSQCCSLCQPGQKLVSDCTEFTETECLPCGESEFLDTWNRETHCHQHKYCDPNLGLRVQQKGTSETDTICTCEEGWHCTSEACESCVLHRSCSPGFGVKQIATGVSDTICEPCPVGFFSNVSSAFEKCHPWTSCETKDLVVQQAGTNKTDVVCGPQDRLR
CD3 (human), sequence (chain, as listed by the source): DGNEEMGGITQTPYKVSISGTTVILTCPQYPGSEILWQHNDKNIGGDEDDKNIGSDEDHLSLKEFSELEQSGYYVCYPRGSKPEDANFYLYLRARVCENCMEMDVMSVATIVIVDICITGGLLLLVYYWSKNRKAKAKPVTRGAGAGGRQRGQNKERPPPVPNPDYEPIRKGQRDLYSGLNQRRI

B1: Ly1963 (other)
chain 1: QVQLVQSGAEVKKPGASVKVSCKASGYTFTSYVMHWVRQKPGQGLEWIGYINPYNEGTESTDKFKGRATMTSDKSTSTVYMELSSLRSEDTAVYYCASIYYGYEGTYFGVWGQGTLVTVSSASTKGPSVFPLAPSSKSTSGGTAALGCLVKDYFPEPVTVSWNSGALTSGVHTFPAVLQSSGLYSLSSVVTVPSSSLGTQTYICNVNHKPSNTKVDKKVEPKSCGGGGSGGGGSGGGGSGGGGSEVQLVESGGGLVQPGGSLRLSCAASGFTFSTYAMNWVRQAPGKGLEWVGRIRSKYNNYATYYADSVKGRFTISRDDSKNSLYLQMNSLKTEDTAVYYCVRHGNFGNSYVSWFAYWGQGTLVTVSSGGGGSDKTHTCPPCPAPEAAGPSVFLFPPKPKDTLMISRTPEVTCVVVDVSHEDPEVKFNWYVDGVEVHNAKTKPREEQYNSTYRVVSVLTVLHQDWLNGKEYKCKVSNKALPAPIEKTISKAKGQPREPQVYTLPPSREEMTKNQVSLWCLVKGFYPSDIAVEWESNGQPENNYKTTPPVLDSDGSFFLYSKLTVDKSRWQQGNVFSCSVMHEALHNHYTQKSLSLSPGGGGGSGGGGSGGGGSGGGGSQVQLVQSGAEVKKPGASVKVSCKASGYTFAGFEMHWVRQAPGQGLEWMGAIDPKTGGTDYNQKFKDRVTMTRDTSISTAYMELSRLRSDDTAVYYCARDLGYFDVWGQGTLVTVSS
chain 2: QVQLVQSGAEVKKPGASVKVSCKASGYTFTSYVMHWVRQKPGQGLEWIGYINPYNEGTESTDKFKGRATMTSDKSTSTVYMELSSLRSEDTAVYYCASIYYGYEGTYFGVWGQGTLVTVSSASTKGPSVFPLAPSSKSTSGGTAALGCLVKDYFPEPVTVSWNSGALTSGVHTFPAVLQSSGLYSLSSVVTVPSSSLGTQTYICNVNHKPSNTKVDKKVEPKSCGGGGSGGGGSGGGGSGGGGSQAVVTQEPSLTVSPGGTVTLTCRSSTGAVTTSNYANWVQQKPGQAPRGLIGGTNKRAPWTPARFSGSLLGGKAALTITGAQAEDEADYYCALWYSNLWVFGGGTKLTVLGGGGSDKTHTCPPCPAPEAAGPSVFLFPPKPKDTLMISRTPEVTCVVVDVSHEDPEVKFNWYVDGVEVHNAKTKPREEQYNSTYRVVSVLTVLHQDWLNGKEYKCKVSNKALPAPIEKTISKAKGQPREPQVYTLPPSREEMTKNQVSLSCAVKGFYPSDIAVEWESNGQPENNYKTTPPVLDSDGSFFLVSKLTVDKSRWQQGNVFSCSVMHEALHNHYTQKSLSLSPGGGGGSGGGGSGGGGSGGGGSDIQMTQSPSSLSASVGDRVTITCRASQDIRSNLNWYQQKPGGAVKLLIYYTSRLHSGVPSRFSGSGSGTDYTLTISSLQPEDFATYFCQQSEKLPRTFGGGTKVEIR
light: EIVLTQSPATLSLSPGERATLSCRASSSVSYMHWYQQKPGQAPRPWIYATSNLASGIPARFSGSRSGTDYTLTISSLEPEDFAVYYCQQWSSNTLTFGGGTKVEIKRTVAAPSVFIFPPSDEQLKSGTASVVCLLNNFYPREAKVQWKVDNALQSGNSQESVTEQDSKDSTYSLSSTLTLSKADYEKHKVYACEVTHQGLSSPVTKSFNRGEC
notes: Tri-specific antibody: B7H3 Fabs, central CD3 Fv, terminal CD137 Fv; Flexible linker is (G4S)4
- binding result [1]: binds
- binding result [2]: binds
- EC50 [3]: 0.74 µg/mL

B2: TM559 (antibody, V domains shown)
VH: EVQLVESGGGLVQPGGSLRLSCAASGFTFTNYGLHWVRQAPGKGLEWVSSISPSGGVTYYRDSVKGRFTISRDNSKNTLYLQMNSLRAEDTAVYYCAKPFLGWGGANWIAHWGQGTLVTVSS
VL: DIQMTQSPSSLSASVGDRVTITCLASEDISNDLAWYQQKPGKAPKLLIYFVDRLLDGVPSRFSGSGSGTDFTLTISSLQPEDFATYYCQQSYKYPPTFGQGTKLEIK
notes: Parent mAb; also called Anti-CD40 TM559
- binding result [4]: binds

B3: Ly2279 (bispecific antibody)
heavy 1: not shown
heavy 2: QVQLVQSGAEVKKPGASVKVSCKASGYTFTSYVMHWVRQKPGQGLEWIGYINPYNEGTESTDKFKGRATMTSDKSTSTVYMELSSLRSEDTAVYYCASIYYGYEGTYFGVWGQGTLVTVSSASTKGPSVFPLAPSSKSTSGGTAALGCLVKDYFPEPVTVSWNSGALTSGVHTFPAVLQSSGLYSLSSVVTVPSSSLGTQTYICNVNHKPSNTKVDKKVEPKSCGGGGSGGGGSGGGGSGGGGSDIQMTQSPSSVSASVGDRVTITCRASQGIYSWLAWYQQKPGKAPNLLIYTASTLQSGVPSRFSGSGSGTDFTLTISSLQPEDFATYYCQQANIFPLTFGGGTKVEIKGGGGSDKTHTCPPCPAPEAAGPSVFLFPPKPKDTLMISRTPEVTCVVVDVSHEDPEVKFNWYVDGVEVHNAKTKPREEQYNSTYRVVSVLTVLHQDWLNGKEYKCKVSNKALPAPIEKTISKAKGQPREPQVYTLPPSREEMTKNQVSLSCAVKGFYPSDIAVEWESNGQPENNYKTTPPVLDSDGSFFLVSKLTVDKSRWQQGNVFSCSVMHEALHNRFTQKSLSLSPG
light: B1 light
notes: B7H3 Fabs x central CD40 Fv (TM383)
- binding result [5]: binds

B4: Ly2424 (bispecific antibody, human IgG1, kappa)
heavy 1: not shown
heavy 2: QVQLVQSGAEVKKPGASVKVSCKASGYTFTSYVMHWVRQKPGQGLEWIGYINPYNEGTESTDKFKGRATMTSDKSTSTVYMELSSLRSEDTAVYYCASIYYGYEGTYFGVWGQGTLVTVSSASTKGPSVFPLAPSSKSTSGGTAALGCLVKDYFPEPVTVSWNSGALTSGVHTFPAVLQSSGLYSLSSVVTVPSSSLGTQTYICNVNHKPSNTKVDKKVEPKSCDKTHTCPPCPAPEAAGPSVFLFPPKPKDTLMISRTPEVTCVVVDVSHEDPEVKFNWYVDGVEVHNAKTKPREEQYNSTYRVVSVLTVLHQDWLNGKEYKCKVSNKALPAPIEKTISKAKGQPREPQVYTLPPSREEMTKNQVSLSCAVKGFYPSDIAVEWESNGQPENNYKTTPPVLDSDGSFFLVSKLTVDKSRWQQGNVFSCSVMHEALHNRFTQKSLSLSPGGGGGSGGGGSGGGGSGGGGSDIQMTQSPSSVSASVGDRVTITCRASQGIYSWLAWYQQKPGKAPNLLIYTASTLQSGVPSRFSGSGSGTDFTLTISSLQPEDFATYYCQQANIFPLTFGGGTKVEIK
light: B1 light
notes: B7H3 Fabs x terminal CD40 Fv (TM383)
- binding result [5]: binds
- binding result [4]: binds

B5: Ly2428 (bispecific antibody)
heavy 1: QVQLVQSGAEVKKPGASVKVSCKASGYTFTSYVMHWVRQKPGQGLEWIGYINPYNEGTESTDKFKGRATMTSDKSTSTVYMELSSLRSEDTAVYYCASIYYGYEGTYFGVWGQGTLVTVSSASTKGPSVFPLAPSSKSTSGGTAALGCLVKDYFPEPVTVSWNSGALTSGVHTFPAVLQSSGLYSLSSVVTVPSSSLGTQTYICNVNHKPSNTKVDKKVEPKSCGGGGSGGGGSGGGGSGGGGSEVQLVESGGGLVQPGGSLRLSCAASGFTFTNYGLHWVRQAPGKGLEWVSSISPSGGVTYYRDSVKGRFTISRDNSKNTLYLQMNSLRAEDTAVYYCAKPFLGWGGANWIAHWGQGTLVTVSSGGGGSDKTHTCPPCPAPEAAGPSVFLFPPKPKDTLMISRTPEVTCVVVDVSHEDPEVKFNWYVDGVEVHNAKTKPREEQYNSTYRVVSVLTVLHQDWLNGKEYKCKVSNKALPAPIEKTISKAKGQPREPQVYTLPPSREEMTKNQVSLWCLVKGFYPSDIAVEWESNGQPENNYKTTPPVLDSDGSFFLYSKLTVDKSRWQQGNVFSCSVMHEALHNHYTQKSLSLSPG
heavy 2: QVQLVQSGAEVKKPGASVKVSCKASGYTFTSYVMHWVRQKPGQGLEWIGYINPYNEGTESTDKFKGRATMTSDKSTSTVYMELSSLRSEDTAVYYCASIYYGYEGTYFGVWGQGTLVTVSSASTKGPSVFPLAPSSKSTSGGTAALGCLVKDYFPEPVTVSWNSGALTSGVHTFPAVLQSSGLYSLSSVVTVPSSSLGTQTYICNVNHKPSNTKVDKKVEPKSCGGGGSGGGGSGGGGSGGGGSDIQMTQSPSSLSASVGDRVTITCLASEDISNDLAWYQQKPGKAPKLLIYFVDRLLDGVPSRFSGSGSGTDFTLTISSLQPEDFATYYCQQSYKYPPTFGQGTKLEIKGGGGSDKTHTCPPCPAPEAAGPSVFLFPPKPKDTLMISRTPEVTCVVVDVSHEDPEVKFNWYVDGVEVHNAKTKPREEQYNSTYRVVSVLTVLHQDWLNGKEYKCKVSNKALPAPIEKTISKAKGQPREPQVYTLPPSREEMTKNQVSLSCAVKGFYPSDIAVEWESNGQPENNYKTTPPVLDSDGSFFLVSKLTVDKSRWQQGNVFSCSVMHEALHNRFTQKSLSLSPG
light: B1 light
notes: B7H3 Fabs x central CD40 Fv (TM559)
- binding result [5]: binds
- binding result [4]: binds
